Assay results taken from patent US20190382481A1 (Janssen / Centocor, published 2019).

Each binder was assayed against human CD33 (human, UniProt P20138 18-364) (assay: cell-based or functional assay).
human CD33, sequence (P20138 18-364 limits assumed): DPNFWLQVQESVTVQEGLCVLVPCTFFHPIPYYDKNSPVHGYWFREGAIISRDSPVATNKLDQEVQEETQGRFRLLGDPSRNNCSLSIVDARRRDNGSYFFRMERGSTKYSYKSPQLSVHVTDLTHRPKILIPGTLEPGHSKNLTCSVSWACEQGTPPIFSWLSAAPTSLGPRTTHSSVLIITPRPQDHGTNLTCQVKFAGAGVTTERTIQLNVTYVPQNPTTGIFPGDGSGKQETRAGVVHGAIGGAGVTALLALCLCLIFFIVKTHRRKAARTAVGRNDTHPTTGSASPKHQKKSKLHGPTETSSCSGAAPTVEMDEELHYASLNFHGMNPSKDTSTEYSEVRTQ

Binder | Cytotoxicity EC50 (nM), T-cell mediated cytotoxicity of MOLM-13 [nM]
C3CB8 (bispecific antibody, human IgG4 S228P, lambda, F234A L235A) heavy 1: not shown light 1: SYELTQPPSVSVSPGQTASITCSGHKLGDKYACWYQQKPGQSPVVVIYKDSKRPSGIPERFSGSNFGNTATLTISGTQAMDEADYYCQAWDSSTVVFGGGTKLTVLGQPKAAPSVTLFPPSSEELQANKATLVCLISDFYPGAVTVAWKADSSPVKAGVETTTPSKQSNNKYAASSYLSLTPEQWKSHRSYSCQVTHEGSTVEKTVAPTECS heavy 2: EVQLVESGGGLVQPGGSLRLSCAASGFTFNTYAMNWVRQAPGKGLEWVARIRSKYNNYATYYAASVKGRFTISRDDSKNSLYLQMNSLKTEDTAVYYCARHGNFGNSYVSWFAYWGQGTLVTVSSASTKGPSVFPLAPCSRSTSESTAALGCLVKDYFPEPVTVSWNSGALTSGVHTFPAVLQSSGLYSLSSVVTVPSSSLGTKTYTCNVDHKPSNTKVDKRVESKYGPPCPPCPAPEAAGGPSVFLFPPKPKDTLMISRTPEVTCVVVDVSQEDPEVQFNWYVDGVEVHNAKTKPREEQFNSTYRVVSVLTVLHQDWLNGKEYKCKVSNKGLPSSIEKTISKAKGQPREPQVYTLPPSQEEMTKNQVSLTCLVKGFYPSDIAVEWESNGQPENNYKTTPPVLDSDGSFLLYSKLTVDKSRWQEGNVFSCSVMHEALHNHYTQKSLSLSLGK light 2: QTVVTQEPSLTVSPGGTVTLTCRSSTGAVTTSNYANWVQQKPGQAPRGLIGGTNKRAPGTPARFSGSLLGGKAALTLSGVQPEDEAEYYCALWYSNLWVFGGGTKLTVLGQPKAAPSVTLFPPSSEELQANKATLVCLISDFYPGAVTVAWKADSSPVKAGVETTTPSKQSNNKYAASSYLSLTPEQWKSHRSYSCQVTHEGSTVEKTVAPTECS | 0.513
C3CB10 (bispecific antibody, human IgG4 S228P, lambda, F234A L235A) heavy 1: not shown light 1: SYELTQPPSVSVSPGQTASITCSGDKLGDKYACWYQQKPGQSPVVVIYQDRKRPSGIPERFSGSNFGNTATLTISGTQAMDEADYYCQAWDSSTVVFGGGTKLTVLGQPKAAPSVTLFPPSSEELQANKATLVCLISDFYPGAVTVAWKADSSPVKAGVETTTPSKQSNNKYAASSYLSLTPEQWKSHRSYSCQVTHEGSTVEKTVAPTECS heavy 2: EVQLVESGGGLVQPGGSLRLSCAASGFTFNTYAMNWVRQAPGKGLEWVARIRSKYNNYATYYAASVKGRFTISRDDSKNSLYLQMNSLKTEDTAVYYCARHGNFGNSYVSWFAYWGQGTLVTVSSASTKGPSVFPLAPCSRSTSESTAALGCLVKDYFPEPVTVSWNSGALTSGVHTFPAVLQSSGLYSLSSVVTVPSSSLGTKTYTCNVDHKPSNTKVDKRVESKYGPPCPPCPAPEAAGGPSVFLFPPKPKDTLMISRTPEVTCVVVDVSQEDPEVQFNWYVDGVEVHNAKTKPREEQFNSTYRVVSVLTVLHQDWLNGKEYKCKVSNKGLPSSIEKTISKAKGQPREPQVYTLPPSQEEMTKNQVSLTCLVKGFYPSDIAVEWESNGQPENNYKTTPPVLDSDGSFLLYSKLTVDKSRWQEGNVFSCSVMHEALHNHYTQKSLSLSLGK light 2: QTVVTQEPSLTVSPGGTVTLTCRSSTGAVTTSNYANWVQQKPGQAPRGLIGGTNKRAPGTPARFSGSLLGGKAALTLSGVQPEDEAEYYCALWYSNLWVFGGGTKLTVLGQPKAAPSVTLFPPSSEELQANKATLVCLISDFYPGAVTVAWKADSSPVKAGVETTTPSKQSNNKYAASSYLSLTPEQWKSHRSYSCQVTHEGSTVEKTVAPTECS | 0.473
C3CB14 (bispecific antibody, human IgG4 S228P, lambda, F234A L235A) heavy 1: not shown light 1: SYELTQPPSVSVSPGQTASITCSGDKLGNKYASWYQQKPGQSPVLVIYQDTKRPSGIPERVSGSNSGNTATLTISGTQAMDEADYHCQAWDSSTVVFGGGTKLTVLGQPKAAPSVTLFPPSSEELQANKATLVCLISDFYPGAVTVAWKADSSPVKAGVETTTPSKQSNNKYAASSYLSLTPEQWKSHRSYSCQVTHEGSTVEKTVAPTECS heavy 2: EVQLVESGGGLVQPGGSLRLSCAASGFTFNTYAMNWVRQAPGKGLEWVARIRSKYNNYATYYAASVKGRFTISRDDSKNSLYLQMNSLKTEDTAVYYCARHGNFGNSYVSWFAYWGQGTLVTVSSASTKGPSVFPLAPCSRSTSESTAALGCLVKDYFPEPVTVSWNSGALTSGVHTFPAVLQSSGLYSLSSVVTVPSSSLGTKTYTCNVDHKPSNTKVDKRVESKYGPPCPPCPAPEAAGGPSVFLFPPKPKDTLMISRTPEVTCVVVDVSQEDPEVQFNWYVDGVEVHNAKTKPREEQFNSTYRVVSVLTVLHQDWLNGKEYKCKVSNKGLPSSIEKTISKAKGQPREPQVYTLPPSQEEMTKNQVSLTCLVKGFYPSDIAVEWESNGQPENNYKTTPPVLDSDGSFLLYSKLTVDKSRWQEGNVFSCSVMHEALHNHYTQKSLSLSLGK light 2: QTVVTQEPSLTVSPGGTVTLTCRSSTGAVTTSNYANWVQQKPGQAPRGLIGGTNKRAPGTPARFSGSLLGGKAALTLSGVQPEDEAEYYCALWYSNLWVFGGGTKLTVLGQPKAAPSVTLFPPSSEELQANKATLVCLISDFYPGAVTVAWKADSSPVKAGVETTTPSKQSNNKYAASSYLSLTPEQWKSHRSYSCQVTHEGSTVEKTVAPTECS | 0.538
C3CB16 (bispecific antibody, human IgG4 S228P, lambda, F234A L235A) heavy 1: not shown light 1: not shown heavy 2: EVQLVESGGGLVQPGGSLRLSCAASGFTFNTYAMNWVRQAPGKGLEWVARIRSKYNNYATYYAASVKGRFTISRDDSKNSLYLQMNSLKTEDTAVYYCARHGNFGNSYVSWFAYWGQGTLVTVSSASTKGPSVFPLAPCSRSTSESTAALGCLVKDYFPEPVTVSWNSGALTSGVHTFPAVLQSSGLYSLSSVVTVPSSSLGTKTYTCNVDHKPSNTKVDKRVESKYGPPCPPCPAPEAAGGPSVFLFPPKPKDTLMISRTPEVTCVVVDVSQEDPEVQFNWYVDGVEVHNAKTKPREEQFNSTYRVVSVLTVLHQDWLNGKEYKCKVSNKGLPSSIEKTISKAKGQPREPQVYTLPPSQEEMTKNQVSLTCLVKGFYPSDIAVEWESNGQPENNYKTTPPVLDSDGSFLLYSKLTVDKSRWQEGNVFSCSVMHEALHNHYTQKSLSLSLGK light 2: QTVVTQEPSLTVSPGGTVTLTCRSSTGAVTTSNYANWVQQKPGQAPRGLIGGTNKRAPGTPARFSGSLLGGKAALTLSGVQPEDEAEYYCALWYSNLWVFGGGTKLTVLGQPKAAPSVTLFPPSSEELQANKATLVCLISDFYPGAVTVAWKADSSPVKAGVETTTPSKQSNNKYAASSYLSLTPEQWKSHRSYSCQVTHEGSTVEKTVAPTECS | 0.667
C3CB5 (bispecific antibody, human IgG4 S228P, lambda, F234A L235A) heavy 1: not shown light 1: SYELTQPPSVSVSPGQTASITCSGDKLGDKYVCWYQQKPGQSPVVVIHQDRKRPSGIPERFSGSNFGNTATLTISGTQAMDEADYYCQAWDSSTVVFGGGTKLTVLGQPKAAPSVTLFPPSSEELQANKATLVCLISDFYPGAVTVAWKADSSPVKAGVETTTPSKQSNNKYAASSYLSLTPEQWKSHRSYSCQVTHEGSTVEKTVAPTECS heavy 2: EVQLVESGGGLVQPGGSLRLSCAASGFTFNTYAMNWVRQAPGKGLEWVARIRSKYNNYATYYAASVKGRFTISRDDSKNSLYLQMNSLKTEDTAVYYCARHGNFGNSYVSWFAYWGQGTLVTVSSASTKGPSVFPLAPCSRSTSESTAALGCLVKDYFPEPVTVSWNSGALTSGVHTFPAVLQSSGLYSLSSVVTVPSSSLGTKTYTCNVDHKPSNTKVDKRVESKYGPPCPPCPAPEAAGGPSVFLFPPKPKDTLMISRTPEVTCVVVDVSQEDPEVQFNWYVDGVEVHNAKTKPREEQFNSTYRVVSVLTVLHQDWLNGKEYKCKVSNKGLPSSIEKTISKAKGQPREPQVYTLPPSQEEMTKNQVSLTCLVKGFYPSDIAVEWESNGQPENNYKTTPPVLDSDGSFLLYSKLTVDKSRWQEGNVFSCSVMHEALHNHYTQKSLSLSLGK light 2: QTVVTQEPSLTVSPGGTVTLTCRSSTGAVTTSNYANWVQQKPGQAPRGLIGGTNKRAPGTPARFSGSLLGGKAALTLSGVQPEDEAEYYCALWYSNLWVFGGGTKLTVLGQPKAAPSVTLFPPSSEELQANKATLVCLISDFYPGAVTVAWKADSSPVKAGVETTTPSKQSNNKYAASSYLSLTPEQWKSHRSYSCQVTHEGSTVEKTVAPTECS | 1.26
C3CB87 (bispecific antibody, human IgG4 S228P, kappa, lambda, F234A L235A) heavy 1: not shown light 1: not shown heavy 2: EVQLVESGGGLVQPGGSLRLSCAASGFTFNTYAMNWVRQAPGKGLEWVARIRSKYNNYATYYAASVKGRFTISRDDSKNSLYLQMNSLKTEDTAVYYCARHGNFGNSYVSWFAYWGQGTLVTVSSASTKGPSVFPLAPCSRSTSESTAALGCLVKDYFPEPVTVSWNSGALTSGVHTFPAVLQSSGLYSLSSVVTVPSSSLGTKTYTCNVDHKPSNTKVDKRVESKYGPPCPPCPAPEAAGGPSVFLFPPKPKDTLMISRTPEVTCVVVDVSQEDPEVQFNWYVDGVEVHNAKTKPREEQFNSTYRVVSVLTVLHQDWLNGKEYKCKVSNKGLPSSIEKTISKAKGQPREPQVYTLPPSQEEMTKNQVSLTCLVKGFYPSDIAVEWESNGQPENNYKTTPPVLDSDGSFLLYSKLTVDKSRWQEGNVFSCSVMHEALHNHYTQKSLSLSLGK light 2: QTVVTQEPSLTVSPGGTVTLTCRSSTGAVTTSNYANWVQQKPGQAPRGLIGGTNKRAPGTPARFSGSLLGGKAALTLSGVQPEDEAEYYCALWYSNLWVFGGGTKLTVLGQPKAAPSVTLFPPSSEELQANKATLVCLISDFYPGAVTVAWKADSSPVKAGVETTTPSKQSNNKYAASSYLSLTPEQWKSHRSYSCQVTHEGSTVEKTVAPTECS | 0.067
C3CB89 (bispecific antibody, human IgG4 S228P, kappa, lambda, F234A L235A) heavy 1: not shown light 1: not shown heavy 2: EVQLVESGGGLVQPGGSLRLSCAASGFTFNTYAMNWVRQAPGKGLEWVARIRSKYNNYATYYAASVKGRFTISRDDSKNSLYLQMNSLKTEDTAVYYCARHGNFGNSYVSWFAYWGQGTLVTVSSASTKGPSVFPLAPCSRSTSESTAALGCLVKDYFPEPVTVSWNSGALTSGVHTFPAVLQSSGLYSLSSVVTVPSSSLGTKTYTCNVDHKPSNTKVDKRVESKYGPPCPPCPAPEAAGGPSVFLFPPKPKDTLMISRTPEVTCVVVDVSQEDPEVQFNWYVDGVEVHNAKTKPREEQFNSTYRVVSVLTVLHQDWLNGKEYKCKVSNKGLPSSIEKTISKAKGQPREPQVYTLPPSQEEMTKNQVSLTCLVKGFYPSDIAVEWESNGQPENNYKTTPPVLDSDGSFLLYSKLTVDKSRWQEGNVFSCSVMHEALHNHYTQKSLSLSLGK light 2: QTVVTQEPSLTVSPGGTVTLTCRSSTGAVTTSNYANWVQQKPGQAPRGLIGGTNKRAPGTPARFSGSLLGGKAALTLSGVQPEDEAEYYCALWYSNLWVFGGGTKLTVLGQPKAAPSVTLFPPSSEELQANKATLVCLISDFYPGAVTVAWKADSSPVKAGVETTTPSKQSNNKYAASSYLSLTPEQWKSHRSYSCQVTHEGSTVEKTVAPTECS | 0.41
